Results reported in the supplement of paper PMC9112550, “Optimization of the antimicrobial peptide Bac7 by deep mutational scanning” (BMC Biology, 2022).

Each sequence was assayed on Escherichia coli TOP10 (assay: shrunken log2 fold change of peptide-encoding DNA abundance (4.5 h post-induction vs induction); higher = less antimicrobial activity (less host growth inhibition)). Conditions: time post-induction: 4.5 h; library: site-saturation at positions 5, 18, 19, 20.
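Also: peptides expressed intracellularly from a pBAD plasmid library in pooled LB shake-flask culture, induced with 0.3% L-arabinose, DNA abundance read by NGS, three biological replicates, DESeq2 with apeglm shrinkage.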

Question: How did the “shrunken log2 fold change” value turn out when RRIRDRPPRLPRPRPRPTEGPRP was run?
Answer: -0.0161

Question: Which “shrunken log2 fold change” value does the source give for RRIRLRPPRLPRPRPRPQETPRP here?
Answer: 0.0529

Question: For RRIRGRPPRLPRPRPRPYAHPRP, which “shrunken log2 fold change” value is on record?
Answer: 0.023

Question: How did the “shrunken log2 fold change” value turn out when RRIRARPPRLPRPRPRPFWDPRP was run?
Answer: 0.00119

Question: With RRIRLRPPRLPRPRPRPPTSPRP as the sequence, how does the “shrunken log2 fold change” value read?
Answer: 0.493

Question: RRIRMRPPRLPRPRPRPAQDPRP was tested. Which “shrunken log2 fold change” value did it give?
Answer: 0.376

Question: Which “shrunken log2 fold change” value does the source give for RRIRDRPPRLPRPRPRPSNSPRP here?
Answer: -0.365

Question: For RRIRLRPPRLPRPRPRPNFRPRP, which “shrunken log2 fold change” value is on record?
Answer: -0.195

Question: Which “shrunken log2 fold change” value does the source give for RRIRRRPPRLPRPRPRPCYFPRP here?
Answer: -0.0239

Question: How did the “shrunken log2 fold change” value turn out when RRIRPRPPRLPRPRPRPKDIPRP was run?
Answer: -0.801

Question: Which “shrunken log2 fold change” value does the source give for RRIRARPPRLPRPRPRPTDIPRP here?
Answer: 0.224

Question: For RRIRVRPPRLPRPRPRPCGHPRP, which “shrunken log2 fold change” value is on record?
Answer: 0.0386

Question: RRIRLRPPRLPRPRPRPPHKPRP was tested. Which “shrunken log2 fold change” value did it give?
Answer: -0.113

Question: For RRIRGRPPRLPRPRPRPADDPRP, which “shrunken log2 fold change” value is on record?
Answer: 0.563

Question: With RRIRVRPPRLPRPRPRPFFMPRP as the sequence, how does the “shrunken log2 fold change” value read?
Answer: -0.339

Question: How did the “shrunken log2 fold change” value turn out when RRIRLRPPRLPRPRPRPEQVPRP was run?
Answer: -0.117

Question: For RRIRQRPPRLPRPRPRPIILPRP, which “shrunken log2 fold change” value is on record?
Answer: -0.516

Question: Which “shrunken log2 fold change” value does the source give for RRIRARPPRLPRPRPRPPIYPRP here?
Answer: 0.0905

Question: RRIRLRPPRLPRPRPRPCKQPRP was tested. Which “shrunken log2 fold change” value did it give?
Answer: 0.0377

Question: With RRIRGRPPRLPRPRPRPERIPRP as the sequence, how does the “shrunken log2 fold change” value read?
Answer: -0.0324

Question: With RRIRARPPRLPRPRPRPAKCPRP as the sequence, how does the “shrunken log2 fold change” value read?
Answer: -6.11e-05

Question: Which “shrunken log2 fold change” value does the source give for RRIRTRPPRLPRPRPRPSARPRP here?
Answer: 0.0995

Question: With RRIRPRPPRLPRPRPRPEQFPRP as the sequence, how does the “shrunken log2 fold change” value read?
Answer: -0.0226

Question: With RRIRARPPRLPRPRPRPVQQPRP as the sequence, how does the “shrunken log2 fold change” value read?
Answer: 0.954

Question: How did the “shrunken log2 fold change” value turn out when RRIRIRPPRLPRPRPRPPENPRP was run?
Answer: 0.0392

Question: How did the “shrunken log2 fold change” value turn out when RRIRFRPPRLPRPRPRPKFQPRP was run?
Answer: -0.14

Question: RRIRYRPPRLPRPRPRPFMNPRP was tested. Which “shrunken log2 fold change” value did it give?
Answer: -0.0199

Question: How did the “shrunken log2 fold change” value turn out when RRIRGRPPRLPRPRPRPEIKPRP was run?
Answer: 1.24

Question: RRIRGRPPRLPRPRPRPVAKPRP was tested. Which “shrunken log2 fold change” value did it give?
Answer: 0.961

Question: For RRIRARPPRLPRPRPRPNCTPRP, which “shrunken log2 fold change” value is on record?
Answer: 0.172

Question: How did the “shrunken log2 fold change” value turn out when RRIRHRPPRLPRPRPRPTRGPRP was run?
Answer: 0.0497

Question: RRIRERPPRLPRPRPRPYYKPRP was tested. Which “shrunken log2 fold change” value did it give?
Answer: -0.231

Question: How did the “shrunken log2 fold change” value turn out when RRIRPRPPRLPRPRPRPAQNPRP was run?
Answer: -0.105

Question: For RRIRMRPPRLPRPRPRPCCHPRP, which “shrunken log2 fold change” value is on record?
Answer: 0.0146

Question: RRIRERPPRLPRPRPRPDHSPRP was tested. Which “shrunken log2 fold change” value did it give?
Answer: -0.184

Question: RRIRQRPPRLPRPRPRPCEAPRP was tested. Which “shrunken log2 fold change” value did it give?
Answer: 0.00535

Question: How did the “shrunken log2 fold change” value turn out when RRIRVRPPRLPRPRPRPIFMPRP was run?
Answer: -0.363

Question: How did the “shrunken log2 fold change” value turn out when RRIRQRPPRLPRPRPRPFSRPRP was run?
Answer: 0.00616

Question: With RRIRGRPPRLPRPRPRPYNVPRP as the sequence, how does the “shrunken log2 fold change” value read?
Answer: -0.126

Question: Which “shrunken log2 fold change” value does the source give for RRIRRRPPRLPRPRPRPQVNPRP here?
Answer: -0.0663

Question: Which “shrunken log2 fold change” value does the source give for RRIRQRPPRLPRPRPRPGVSPRP here?
Answer: -0.0696

Question: RRIRERPPRLPRPRPRPWSAPRP was tested. Which “shrunken log2 fold change” value did it give?
Answer: -0.00234

Question: How did the “shrunken log2 fold change” value turn out when RRIRFRPPRLPRPRPRPVFNPRP was run?
Answer: -0.461

Question: RRIRGRPPRLPRPRPRPAWEPRP was tested. Which “shrunken log2 fold change” value did it give?
Answer: 1.01

Question: Which “shrunken log2 fold change” value does the source give for RRIRMRPPRLPRPRPRPNNRPRP here?
Answer: -0.0376

Question: For RRIRNRPPRLPRPRPRPGTVPRP, which “shrunken log2 fold change” value is on record?
Answer: -0.31

Question: Which “shrunken log2 fold change” value does the source give for RRIRWRPPRLPRPRPRPDFNPRP here?
Answer: -0.0747

Question: With RRIRLRPPRLPRPRPRPLMTPRP as the sequence, how does the “shrunken log2 fold change” value read?
Answer: -0.344

Question: With RRIRQRPPRLPRPRPRPRKEPRP as the sequence, how does the “shrunken log2 fold change” value read?
Answer: -0.0194

Question: For RRIRLRPPRLPRPRPRPDNDPRP, which “shrunken log2 fold change” value is on record?
Answer: -0.228

Question: With RRIRSRPPRLPRPRPRPLHKPRP as the sequence, how does the “shrunken log2 fold change” value read?
Answer: 0.104

Question: With RRIRYRPPRLPRPRPRPYCTPRP as the sequence, how does the “shrunken log2 fold change” value read?
Answer: -1.54

Question: How did the “shrunken log2 fold change” value turn out when RRIRPRPPRLPRPRPRPASVPRP was run?
Answer: 0.185

Question: How did the “shrunken log2 fold change” value turn out when RRIRLRPPRLPRPRPRPVGAPRP was run?
Answer: 0.349

Question: Which “shrunken log2 fold change” value does the source give for RRIRERPPRLPRPRPRPFSTPRP here?
Answer: -0.0931

Question: RRIRSRPPRLPRPRPRPRQKPRP was tested. Which “shrunken log2 fold change” value did it give?
Answer: 0.29

Question: For RRIRNRPPRLPRPRPRPFGWPRP, which “shrunken log2 fold change” value is on record?
Answer: 0.0221

Question: Which “shrunken log2 fold change” value does the source give for RRIRYRPPRLPRPRPRPRDTPRP here?
Answer: -0.378

Question: How did the “shrunken log2 fold change” value turn out when RRIRYRPPRLPRPRPRPSKAPRP was run?
Answer: -0.223

Question: How did the “shrunken log2 fold change” value turn out when RRIRNRPPRLPRPRPRPGERPRP was run?
Answer: -0.0647

Question: RRIRIRPPRLPRPRPRPMRAPRP was tested. Which “shrunken log2 fold change” value did it give?
Answer: 1.01

Question: For RRIRYRPPRLPRPRPRPNRDPRP, which “shrunken log2 fold change” value is on record?
Answer: -0.0959

Question: Which “shrunken log2 fold change” value does the source give for RRIRDRPPRLPRPRPRPRFYPRP here?
Answer: 0.386

Question: RRIRQRPPRLPRPRPRPCWKPRP was tested. Which “shrunken log2 fold change” value did it give?
Answer: 0.111

Question: With RRIRARPPRLPRPRPRPYCNPRP as the sequence, how does the “shrunken log2 fold change” value read?
Answer: -0.378

Question: RRIRIRPPRLPRPRPRPCNIPRP was tested. Which “shrunken log2 fold change” value did it give?
Answer: -0.106

Question: How did the “shrunken log2 fold change” value turn out when RRIRSRPPRLPRPRPRPCGTPRP was run?
Answer: 0.202

Question: With RRIRCRPPRLPRPRPRPANYPRP as the sequence, how does the “shrunken log2 fold change” value read?
Answer: -0.342

Question: With RRIRQRPPRLPRPRPRPNNYPRP as the sequence, how does the “shrunken log2 fold change” value read?
Answer: -0.53

Question: How did the “shrunken log2 fold change” value turn out when RRIRMRPPRLPRPRPRPPNRPRP was run?
Answer: 1.08

Question: Which “shrunken log2 fold change” value does the source give for RRIRTRPPRLPRPRPRPIFLPRP here?
Answer: -0.145

Question: Which “shrunken log2 fold change” value does the source give for RRIRWRPPRLPRPRPRPVYAPRP here?
Answer: 0.31

Question: For RRIRARPPRLPRPRPRPWLWPRP, which “shrunken log2 fold change” value is on record?
Answer: 0.435

Question: Which “shrunken log2 fold change” value does the source give for RRIRNRPPRLPRPRPRPICPPRP here?
Answer: -0.0189

Question: With RRIRFRPPRLPRPRPRPVPQPRP as the sequence, how does the “shrunken log2 fold change” value read?
Answer: 0.261
